Measured values: patent publication US12410234B2, “Compositions and methods for retrieving tumor-related antibodies and antigens” (THE TRUSTEES OF THE UNIVERSITY OF PENNSYLVANIA, priority 2018, dated 2025)

Assays:
human full length CDH17 = molecular target: T1, human full length CDH17 (Homo sapiens, UniProt Q12864); assay: Flow cytometry of VHH1 phage on HEK293T cells transfected with human CDH17; format: binding; details: screen of ~3000 cell surface proteins
T1 construct: expressed in transfected cells; host or cells: HEK293T
T1 sequence (Q12864 23-832): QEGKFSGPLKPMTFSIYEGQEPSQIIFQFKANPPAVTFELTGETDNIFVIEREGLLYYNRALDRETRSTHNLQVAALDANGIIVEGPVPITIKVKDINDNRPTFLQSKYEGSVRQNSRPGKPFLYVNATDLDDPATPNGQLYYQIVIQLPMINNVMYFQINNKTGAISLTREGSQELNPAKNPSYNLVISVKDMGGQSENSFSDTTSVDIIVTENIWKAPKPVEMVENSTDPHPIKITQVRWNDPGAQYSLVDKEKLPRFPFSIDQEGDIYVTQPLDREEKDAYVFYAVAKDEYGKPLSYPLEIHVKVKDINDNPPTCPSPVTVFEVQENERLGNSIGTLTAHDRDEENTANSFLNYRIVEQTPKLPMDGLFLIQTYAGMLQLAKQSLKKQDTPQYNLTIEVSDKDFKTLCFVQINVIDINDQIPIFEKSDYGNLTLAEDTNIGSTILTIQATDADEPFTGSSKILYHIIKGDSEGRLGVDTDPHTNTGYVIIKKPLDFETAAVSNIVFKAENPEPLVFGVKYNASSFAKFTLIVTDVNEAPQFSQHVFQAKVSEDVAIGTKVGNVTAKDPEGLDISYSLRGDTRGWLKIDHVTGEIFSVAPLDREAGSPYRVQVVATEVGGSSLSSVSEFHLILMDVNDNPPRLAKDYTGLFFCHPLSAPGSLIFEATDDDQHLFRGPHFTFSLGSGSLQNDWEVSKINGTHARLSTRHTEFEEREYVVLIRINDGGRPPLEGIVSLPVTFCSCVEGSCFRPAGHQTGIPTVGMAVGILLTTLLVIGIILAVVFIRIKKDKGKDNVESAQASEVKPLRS
Description: (§1) FIGS. 12A-12D are a series of graphs and images depicting isolation of VHH1 from a llama-derived […] antibody phage display naive library by panning to BON cells, as described in FIG. 1A. VHH1 was isolated from phage library and specifically bound human neuroendocrine tumor (NET) BON cells in vitro, but not other tumor cells such as breast cancer cells or leukemia cells, by positive or negative pannings, as illustrated in FIG. 1. […] FIG. 12B depicts the antigen of VHH1 is CDH17 (through DNA sequencing individual phage clones that specifically bound BON cells), as identified by screening the transfected cells. Flow analysis of VHH1 binding to CDH17 overexpressed in 293 cells is shown.
(§2) Next, to identify the protein antigen of the isolated VHH1 nanobody, ˜3000 human cell membrane protein cDNAs were prepared and transfected into HEK293T cells individually, followed by flow cytometry analysis with the VHH1-expressing phage and FITC-labeled secondary antibody against phage M13 protein (FIG. 12A). […] Human or mouse CDH17 cDNA was transiently transfected into HEK293T cells, followed by flow cytometry analysis with the VHH1-expressing phage and FITC-labeled secondary antibody against phage M13 protein.

BT474 cells = assay: Flow cytometry binding of VHH1 to BT474 cells; design: species or system human
[1] = system: human pancreatic neuroendocrine tumor (PNET) samples; assay: Flow cytometry binding of VHH1 to human PNET biopsy samples; details: four fresh samples via biopsy from liver
mouse CDH17 = molecular target: T2, mouse CDH17 (Mus musculus, UniProt Q9R100); assay: Flow cytometry of VHH1 phage on HEK293T cells transfected with mouse CDH17; format: binding; details: transiently transfected HEK293T
T2 construct: expressed in transfected cells; host or cells: HEK293T
T2 sequence (Q9R100 26-827): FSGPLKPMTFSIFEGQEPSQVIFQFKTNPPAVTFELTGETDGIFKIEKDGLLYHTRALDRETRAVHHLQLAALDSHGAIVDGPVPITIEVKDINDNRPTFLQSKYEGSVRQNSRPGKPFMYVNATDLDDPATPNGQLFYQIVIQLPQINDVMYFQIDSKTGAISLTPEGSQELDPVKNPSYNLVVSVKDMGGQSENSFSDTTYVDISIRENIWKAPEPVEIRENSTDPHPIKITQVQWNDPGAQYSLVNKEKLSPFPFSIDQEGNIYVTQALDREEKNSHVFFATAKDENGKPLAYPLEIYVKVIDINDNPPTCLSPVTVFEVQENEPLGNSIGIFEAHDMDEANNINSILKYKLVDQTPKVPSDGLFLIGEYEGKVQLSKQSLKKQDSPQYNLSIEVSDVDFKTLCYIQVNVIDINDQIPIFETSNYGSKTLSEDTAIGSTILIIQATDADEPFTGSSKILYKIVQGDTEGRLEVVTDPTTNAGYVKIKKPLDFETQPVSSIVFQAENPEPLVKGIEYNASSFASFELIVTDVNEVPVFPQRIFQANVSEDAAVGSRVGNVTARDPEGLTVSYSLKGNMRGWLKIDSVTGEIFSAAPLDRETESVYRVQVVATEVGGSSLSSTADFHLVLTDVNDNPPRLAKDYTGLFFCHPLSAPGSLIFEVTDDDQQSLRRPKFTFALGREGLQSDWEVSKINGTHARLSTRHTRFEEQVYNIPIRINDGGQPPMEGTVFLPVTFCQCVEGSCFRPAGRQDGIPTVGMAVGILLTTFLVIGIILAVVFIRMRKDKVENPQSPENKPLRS
Description: as §1, §2

BON cells [2] = assay: Flow cytometry binding of VHH1 to BON cells; design: species or system human
NT-3 cells = assay: Flow analysis of VHH1 binding to NT-3 cells; design: species or system human
EC1 domain of CDH17 [3] = molecular target: T3, EC1 domain of CDH17 (Homo sapiens, UniProt Q12864); assay: Flow analysis of VHH1 on CDH17 truncations in HEK293T cells; format: binding
T3 construct: expressed in transfected cells; host or cells: HEK293T
T3 sequence (Q12864 23-832): T1 sequence (Q12864 23-832)
Description: (§3) FIGS. 22A-22C are series of images and graphs depicting that the VHH1 binds to the EC1 domain of CDH17. FIG. 22A is a schema showing human CDH17 truncations. […] FIG. 22C is a schematic diagram of CDH17 structure showing VHH1 binds to the N-terminal EC1 domain of CDH17.
(§4) In order to further confirm the antigen of VHH1 is CDH17, several CDH17 internal truncations were constructed. The truncations were transfected into HEK293T cells. […] Additionally, several CDH17 internal truncations were constructed (FIG. 22A) and transfected into HEK293T cells. Flow cytometry analysis was performed with the purified VHH1 nanobody and APC labeled anti-HA secondary antibody against HA on VHH1 nanobody. […] CDH17, a cell adhesion protein highly expressed in human NETs. CDH17 is a cell adhesion protein highly expressed in human NETs. […] One nanobody, named VHH1 was identified that specifically binds to CDH17 protein. […] VHH1 was sequenced and confirmed to contain the conserved VHH sequence (FIG. 14).

EC1 domain of CDH17 [4] = assay: as above; format: binding, human
Description: as §3, §4

BON cells [5] = assay: Flow cytometry binding of VLV or VLV-DM1 to BON cells; design: species or system human
Procedure: (§5) Scale bar: […]. […] Scale bar: […].

QGP1 cells = assay: Flow cytometry binding of VLV or VLV-DM1 to QGP1 cells
Procedure: as §5

[6] = system: CDH17-negative QGP1 cells; assay: In vitro killing of QGP1 cells by ADC (MTT assay); format: cell-based; details: cytotoxicity assay
Procedure: as §5

BON cells [7] = assay: In vitro killing of BON cells by ADC (MTT assay)
THP-1 cells = assay: Killing assay of Nb157-PNE-mediated sCAR system; format: cell-based, human; details: sCAR T to THP-1 2:1, 16 hours
Description: (§6) FIGS. 6A-6H are series of images and graphs depicting that Nb switch-activated CAR T cells eradicate AML in vivo in a controllable manner. FIGS. 6A-6B: Schematic diagram of switchable CAR T system. The Nb157 was expressed and purified by fusing with PNE, a fourteen amino acid peptide, either at N terminal or C terminal of the Nanobody. Primary human T cells were engineered by lentivirus transduction of scFv CAR that recognized PNE specifically. FIG. 6C: Test the affinity of Nb157, Nb157-N-PNE or Nb157-C-PNE against THP-1 cells by flow cytometry analysis. FIG. 6D: Killing assay of Nb157-PNE-mediated sCAR system against THP-1 cells in series of switch concentrations. The ratio of sCAR T to THP-1 was 2:1 and assay was performed after 16 hours incubation. FIG. 6E: 10 million THP-1 cells were transplanted into NSG mice subcutaneously to form the 150 mm^3 of tumors. […] The engraftment volumes were monitored by measuring the lengths and widths of the tumors. […] The primary leukemia or CAR T cells in the mouse peripheral blood were monitored by staining with CD33 or CD3 fluorescence labeled antibodies.
Killing assays were performed as previously described (Cao, L. F. et al. (2010) Cytometry A 77, 534-545). […] Quantification were calculated by either Countbright beads or volume.

THP-1 tumors = assay: sCAR T plus Nb switch in THP-1 xenograft NSG mice; format: in vivo; details: with sCAR T cells
Description: as §6
To determine whether the inducible switch, in concert with the sCAR T cells, can kill tumor in mice, THP-1 cells were transplanted into NSG mice subcutaneously to form tumors. […] It was determined whether resumption of the Nb157 switch injection suppress the tumor growth again. […]

[8] = system: patient-derived AML cells; assay: sCAR T plus Nb switch in patient-derived AML NSG mice; format: in vivo; details: sCAR T cells plus switch compared to sCAR T cell alone
Description: as §6, with “concentrations.” for “concentrations. The ratio of sCAR T to THP-1 was 2:1 and assay was performed after 16 hours incubation. FIG. 6E: 10 million THP-1 cells were transplanted into NSG mice subcutaneously to form the 150 mm^3 of tumors.”
It was explored whether the switch CAR system can also suppress primary AML cells in mice. To this end, patient-derived AML cells were injected into the NSG mice to build leukemic mice model as determined by detection of the human CD33+ AML cells in the peripheral blood of the recipient mice (FIG. 6G). […] The appearance of CD33+ AML cells or CD3+ T cells in peripheral blood were monitored by flow cytometry analysis weekly.

B1: VHH1: llama nanobody binding the EC1 domain of CDH17, SEQ ID NO: 2 (protein)
VHH: QVQLQESGGGLVQPGGSTRLSCVSSRTFSYYDMGWFRQAPGKEREFVALLSWNGENAEYSDSVMGRFTVSRGNTQNSVNLQMNNLKPEDTGIYYCAVTHGGARSVRSWGQGTQVTVSS
modifications: VHH1 nanobody
- binding to human CDH17 (human full length CDH17): only bound to human full length CDH17
- binding to BT474 cells (BT474 cells): cannot be bound by VHH1
- binding to human PNET samples [1]: robustly bound by VHH1
- binding to mouse CDH17 (mouse CDH17): bound both human and mouse CDH17
- binding to BON cells (BON cells [2]): can be bound by VHH1
- binding to NT-3 cells (NT-3 cells): robustly bound by VHH1
- binding domain on CDH17 (EC1 domain of CDH17 [3]): binds to the EC1 domain at the N-terminal part of CDH17
- binding to EC1 domain deleted truncation Del-1 (EC1 domain of CDH17 [4]): completely lost the function to interact with VHH1 nanobody

B2: VLV-DM1 (conjugate)
VHH 1: B1 VHH
VHH 2: B1 VHH
modifications: left off: things letters cannot carry; small tags and cut ends
- binding to BON cells (BON cells [5]): bound to BON cells, albeit with slightly reduced affinity
- binding to QGP1 cells (QGP1 cells): but not QGP1 cells
- killing of QGP1 cells [6]: but not CDH17-negative QGP1 cells
- lysis of BON cells (morphology) (BON cells [7]; at 4 nM, microscopic observation): lysed the BON cells
- killing of BON cells (BON cells [7]; cytotoxicity assay): significantly killed BON cells

B3: Nb157-C-PNE: Nb157 with C-terminal PNE, a fourteen amino acid peptide; inducible nanobody switch (protein)
chain: AAQAAQVQLQESGGGLVQPGGSLSLSCTASGFTFSSYSMAWVRQAPGKGPEWVSGIYPSDGKTRYADFVKGRFSISRDNAKNMLYLQMNNLEPEDTALYYCARGITGLGPRGQGTQVTVSSAA
modifications: left off: small tags and cut ends
notes: Nb157 with C-terminal PNE, a fourteen amino acid peptide; inducible nanobody switch
- switch-triggered killing of THP-1 cells by sCAR T cells (THP-1 cells): potently triggered the killing of THP-1 cells by the sCAR T cells
- tumor growth, THP-1 xenograft (THP-1 tumors; first five times of switch injection): significantly slowed down growth
- tumor size (THP-1 tumors; switch restarted from day 21, day 52): almost undetectable
- survival (Kaplan Maier) [8]: significantly protected the leukemic mice from dying
